Measured values published in publication PMC9242855, “Mechanism of replication origin melting nucleated by CMG helicase assembly” (Nature, 2022).

T1: Mcm4 (S. cerevisiae, UniProt P30665 1-933)
T1 construct: Mcm4, subunit of the yeast MCM (Mcm2–7) helicase; Subunit seen within the dCMGE structure; source: purified within Mcm2–7–Cdt1 on the basis of previously established protocols
T1 sequence: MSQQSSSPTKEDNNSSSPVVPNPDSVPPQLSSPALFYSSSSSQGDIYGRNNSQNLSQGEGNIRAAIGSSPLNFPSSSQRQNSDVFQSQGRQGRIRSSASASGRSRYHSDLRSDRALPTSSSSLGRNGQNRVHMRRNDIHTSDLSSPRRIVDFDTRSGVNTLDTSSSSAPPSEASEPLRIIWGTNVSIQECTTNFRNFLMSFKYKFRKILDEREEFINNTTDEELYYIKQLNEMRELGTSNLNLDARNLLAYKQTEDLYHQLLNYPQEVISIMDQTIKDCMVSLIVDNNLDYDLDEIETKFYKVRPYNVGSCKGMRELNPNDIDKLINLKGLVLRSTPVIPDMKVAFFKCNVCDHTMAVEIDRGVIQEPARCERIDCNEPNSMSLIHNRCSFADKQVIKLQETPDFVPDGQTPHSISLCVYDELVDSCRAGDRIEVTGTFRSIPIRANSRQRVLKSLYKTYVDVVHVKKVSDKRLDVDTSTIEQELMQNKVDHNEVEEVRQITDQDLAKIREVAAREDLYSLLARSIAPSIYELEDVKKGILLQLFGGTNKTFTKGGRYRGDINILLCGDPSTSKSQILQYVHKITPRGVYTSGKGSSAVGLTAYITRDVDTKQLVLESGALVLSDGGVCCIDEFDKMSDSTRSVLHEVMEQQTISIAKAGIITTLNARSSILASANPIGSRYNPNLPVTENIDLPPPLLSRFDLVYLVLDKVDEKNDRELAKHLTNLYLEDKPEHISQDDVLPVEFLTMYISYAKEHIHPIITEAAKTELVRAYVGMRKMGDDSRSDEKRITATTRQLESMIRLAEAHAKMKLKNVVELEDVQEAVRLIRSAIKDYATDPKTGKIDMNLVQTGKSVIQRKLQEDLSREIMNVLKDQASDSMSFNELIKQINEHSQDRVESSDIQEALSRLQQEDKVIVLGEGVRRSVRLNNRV


Columns and labels:
Experiment in all cases: cryo-EM structure; dCMGE assembled from purified yeast proteins on nucleosome-flanked (chromatinized) ARS1 origin DNA with 5 mM ATP; undiluted CMG assembly reaction frozen on grids; dimer map at limited resolution, symmetry-expanded CMGE at 3.5 Å
[1] = target: the molecule itself
[2] = target: T2, Mcm3 (S. cerevisiae, UniProt P24279 1-971); details: both partners purified
T2 construct: Mcm3, subunit of the yeast MCM (Mcm2–7) helicase; Subunit seen within the dCMGE structure; source: purified within Mcm2–7–Cdt1 on the basis of previously established protocols
T2 sequence (P24279 whole entry): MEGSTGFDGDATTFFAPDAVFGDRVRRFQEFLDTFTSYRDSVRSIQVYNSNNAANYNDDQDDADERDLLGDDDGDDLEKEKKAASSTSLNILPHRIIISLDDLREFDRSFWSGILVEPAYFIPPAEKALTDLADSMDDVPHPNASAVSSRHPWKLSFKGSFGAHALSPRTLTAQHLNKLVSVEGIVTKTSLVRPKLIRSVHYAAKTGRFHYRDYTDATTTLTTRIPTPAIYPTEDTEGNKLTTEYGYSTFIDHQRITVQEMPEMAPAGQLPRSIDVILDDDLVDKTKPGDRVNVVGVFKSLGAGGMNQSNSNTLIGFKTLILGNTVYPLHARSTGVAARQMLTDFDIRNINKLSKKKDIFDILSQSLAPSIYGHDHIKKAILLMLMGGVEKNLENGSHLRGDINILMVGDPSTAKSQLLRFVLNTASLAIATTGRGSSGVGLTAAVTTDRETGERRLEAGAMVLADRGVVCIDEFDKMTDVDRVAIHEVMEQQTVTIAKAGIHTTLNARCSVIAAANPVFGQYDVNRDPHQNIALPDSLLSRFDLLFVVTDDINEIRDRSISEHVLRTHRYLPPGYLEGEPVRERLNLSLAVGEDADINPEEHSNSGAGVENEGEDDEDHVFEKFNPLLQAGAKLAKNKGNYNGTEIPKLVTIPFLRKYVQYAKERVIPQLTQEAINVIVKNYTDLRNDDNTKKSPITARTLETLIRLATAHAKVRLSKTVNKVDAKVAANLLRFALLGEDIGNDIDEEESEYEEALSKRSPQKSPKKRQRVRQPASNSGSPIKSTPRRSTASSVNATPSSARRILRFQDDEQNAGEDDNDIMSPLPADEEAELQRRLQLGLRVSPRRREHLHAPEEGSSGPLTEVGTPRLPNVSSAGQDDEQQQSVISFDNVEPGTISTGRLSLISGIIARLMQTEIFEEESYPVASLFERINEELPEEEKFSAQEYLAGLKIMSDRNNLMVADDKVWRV

[3] = target: T1, Mcm4; details: both partners purified

Row | Binder | binding result [1] | binding result [2] | binding result [3]
1 | Mcm6 (natural protein, S. cerevisiae, Mcm6, subunit of the yeast MCM (Mcm2–7) helicase; Subunit seen within the dCMGE structure; source: purified within Mcm2–7–Cdt1 on the basis of previously established protocols) MSSPFPADTPSSNRPSNSSPPPSSIGAGFGSSSGLDSQIGSRLHFPSSSQPHVSNSQTGPFVNDSTQFSSQRLQTDGSATNDMEGNEPARSFKSRALNHVKKVDDVTGEKVREAFEQFLEDFSVQSTDTGEVEKVYRAQIEFMKIYDLNTIYIDYQHLSMRENGALAMAISEQYYRFLPFLQKGLRRVVRKYAPELLNTSDSLKRSEGDEGQADEDEQQDDDMNGSSLPRDSGSSAAPGNGTSAMATRSITTSTSPEQTERVFQISFFNLPTVHRIRDIRSEKIGSLLSISGTVTRTSEVRPELYKASFTCDMCRAIVDNVEQSFKYTEPTFCPNPSCENRAFWTLNVTRSRFLDWQKVRIQENANEIPTGSMPRTLDVILRGDSVERAKPGDRCKFTGVEIVVPDVTQLGLPGVKPSSTLDTRGISKTTEGLNSGVTGLRSLGVRDLTYKISFLACHVISIGSNIGASSPDANSNNRETELQMAANLQANNVYQDNERDQEVFLNSLSSDEINELKEMVKDEHIYDKLVRSIAPAVFGHEAVKKGILLQMLGGVHKSTVEGIKLRGDINICVVGDPSTSKSQFLKYVVGFAPRSVYTSGKASSAAGLTAAVVRDEEGGDYTIEAGALMLADNGICCIDEFDKMDISDQVAIHEAMEQQTISIAKAGIHATLNARTSILAAANPVGGRYNRKLSLRGNLNMTAPIMSRFDLFFVILDDCNEKIDTELASHIVDLHMKRDEAIEPPFSAEQLRRYIKYARTFKPILTKEARSYLVEKYKELRKDDAQGFSRSSYRITVRQLESMIRLSEAIARANCVDEITPSFIAEAYDLLRQSIIRVDVDDVEMDEEFDNIESQSHAASGNNDDNDDGTGSGVITSEPPADIEEGQSEATARPGTSEKKKTTVTYDKYVSMMNMIVRKIAEVDREGAEELTAVDIVDWYLLQKENDLGSLAEYWEERRLAFKVIKRLVKDRILMEIHGTRHNLRDLENEENENNKTVYVIHPNCEVLDQLEPQDSS | binds | – | –
2 | Mcm7 (natural protein, S. cerevisiae, Mcm7, subunit of the yeast MCM (Mcm2–7) helicase; Subunit seen within the dCMGE structure; source: purified within Mcm2–7–Cdt1 on the basis of previously established protocols) MSAALPSIQLPVDYNNLFNEITDFLVTFKQDTLSSDATRNENEDENLDAENIEQHLLEKGPKYMAMLQKVANRELNSVIIDLDDILQYQNEKFLQGTQADDLVSAIQQNANHFTELFCRAIDNNMPLPTKEIDYKDDVLDVILNQRRLRNERMLSDRTNEIRSENLMDTTMDPPSSMNDALREVVEDETELFPPNLTRRYFLYFKPLSQNCARRYRKKAISSKPLSVRQIKGDFLGQLITVRGIITRVSDVKPAVEVIAYTCDQCGYEVFQEVNSRTFTPLSECTSEECSQNQTKGQLFMSTRASKFSAFQECKIQELSQQVPVGHIPRSLNIHVNGTLVRSLSPGDIVDVTGIFLPAPYTGFKALKAGLLTETYLEAQFVRQHKKKFASFSLTSDVEERVMELITSGDVYNRLAKSIAPEIYGNLDVKKALLLLLVGGVDKRVGDGMKIRGDINVCLMGDPGVAKSQLLKAICKISPRGVYTTGKGSSGVGLTAAVMKDPVTDEMILEGGALVLADNGICCIDEFDKMDESDRTAIHEVMEQQTISISKAGINTTLNARTSILAAANPLYGRYNPRLSPLDNINLPAALLSRFDILFLMLDIPSRDDDEKLAEHVTYVHMHNKQPDLDFTPVEPSKMREYIAYAKTKRPVMSEAVNDYVVQAYIRLRQDSKREMDSKFSFGQATPRTLLGIIRLSQALAKLRLADMVDIDDVEEALRLVRVSKESLYQETNKSKEDESPTTKIFTIIKKMLQETGKNTLSYENIVKTVRLRGFTMLQLSNCIQEYSYLNVWHLINEGNTLKFVDDGTMDTDQEDSLVSTPKLAPQTTASANVSAQDSDIDLQDA | – | binds | binds
